The record followed here is publication PMC10716038, “Talin and kindlin use integrin tail allostery and direct binding to activate integrins” (Nature Structural & Molecular Biology, 2023).

B1: talin-1 head domain (THD1) (domain or fragment, UniProt P26039 1-405, looked up)
chain: MVALSLKISIGNVVKTMQFEPSTMVYDACRMIRERIPEALAGPPNDFGLFLSDDDPKKGIWLEAGKALDYYMLRNGDTMEYRKKQRPLKIRMLDGTVKTIMVDDSKTVTDMLMTICARIGITNHDEYSLVRELMEEKKDEGTGTLRKDKTLLRDEKKMEKLKQKLHTDDELNWLDHGRTLREQGVEEHETLLLRRKFFYSDQNVDSRDPVQLNLLYVQARDDILNGSHPVSFDKACEFAGFQCQIQFGPHNEQKHKAGFLDLKDFLPKEYVKQKGERKIFQAHKNCGQMSEIEAKVRYVKLARSLKTYGVSFFLVKEKMKGKNKLVPRLLGITKECVMRVDEKTKEVIQEWSLTNIKRWAASPKSFTLDFGDYQDGYYSVQTTEGEQIAQLIAGYIDIILKKKKS
notes: talin-1 (TLN1) head domain (THD), residues 1-405; murine TLN1 cDNA is named only for the cell lines; also called WT; source: E. coli (DE3) Rosetta 2, purified (IMAC, SEC); not shown: His10-SUMO, N-terminal, cleaved

Common to all, as to conditions: both partners purified
The target of assay [1] is T1, biotinylated integrin β1 transmembrane and cytoplasmic tail polypeptide (β1-TM–CT) in nanodiscs (UniProt P09055 726-798, biotin (biotin-maleimide)).
T1 construct: integrin β1 TM and CT, residues 726-798; embedded in MSP2N2 nanodiscs with 10% PIP2 or PIP3 and 90% DMPC, on average one TM–CT per nanodisc; held on streptavidin beads; also called b1; source: E. coli BL21 (DE3) Rosetta 2, inclusion bodies, purified (IMAC, cation exchange)
The assay is described as follows: flow cytometry-based reporter-displacement assay (FC-RDA) on beads; biotinylated TM–CT in 10% PIP2/90% DMPC nanodiscs on streptavidin beads; reporter 50 nM 647–KIND2, unlabelled competitor titrated; 20 mM Tris pH 7.5, 200 mM NaCl, room temperature; IC50 of individual experiments; charged lipids contribute to the binding. In general terms: In flow cytometry, cells or beads pass a laser one at a time.

Assay [2] concerns the target T1, biotinylated integrin β1 transmembrane …. The assay is described as follows: flow cytometry-based reporter-displacement assay (FC-RDA) on beads; biotinylated TM–CT in 10% PIP2/90% DMPC nanodiscs on streptavidin beads; reporter 100 nM 565–THD1, unlabelled competitor titrated; 20 mM Tris pH 7.5, 200 mM NaCl, room temperature; IC50 of individual experiments; charged lipids contribute to the binding.

Assay [3] has the same target. In words: flow cytometry-based reporter-displacement assay (FC-RDA) on beads; biotinylated TM–CT in PIP2-containing nanodiscs on streptavidin beads; reporter 647–KIND2-Y13A, unlabelled competitor titrated; IC50 of individual experiments.
Assay [4] concerns the target T2, biotinylated integrin β3 transmembrane and cytoplasmic tail polypeptide (β3-TM–CT) in nanodiscs (UniProt O54890 715-787, biotin (biotin-maleimide)).
T2 construct: integrin β3 TM and CT, residues 715-787; embedded in MSP2N2 nanodiscs with 10% PIP2 or PIP3 and 90% DMPC; held on streptavidin beads; also called b3; source: E. coli BL21 (DE3) Rosetta 2, inclusion bodies, purified (IMAC, cation exchange)
T2 sequence (looked up): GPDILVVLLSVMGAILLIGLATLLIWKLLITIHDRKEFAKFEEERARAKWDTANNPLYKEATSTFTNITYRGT
In words: flow cytometry-based reporter-displacement assay (FC-RDA) on beads; biotinylated TM–CT in 10% PIP3/90% DMPC nanodiscs on streptavidin beads; reporter 100 nM 565–THD1, unlabelled competitor titrated; 20 mM Tris pH 7.5, 200 mM NaCl, room temperature; IC50 of individual experiments; charged lipids contribute to the binding.

Assay [5] has as its target B1. In words: MST; unlabelled protein titrated to 50-200 nM ATTO 488-labelled β-CT peptide, no third protein; 20 mM Tris pH 7.5, 200 mM NaCl, 1 mM TCEP, 0.05% Tween-20; Kd of individual titrations (in S0002 mean and sd, n = 2).
The target of assay [6] is B1. In words: MST; apparent; THD1 titrated to 488–β1-CT or 488–β3-CT in the presence of 500–1,100 µM KIND2-F0; MST buffer.
Assay [7] concerns the target B1. In words: MST; apparent; THD1 titrated to 488–β1-CT or 488–β3-CT in the presence of 300–400 µM β-CT-binding-impaired KIND2 Q614A,W615A (QW/AA); MST buffer.
In assay [8] the target is B1. In words: MST; unlabelled protein titrated to 50-200 nM ATTO 488-labelled β-CT peptide, no third protein; 20 mM Tris pH 7.5, 200 mM NaCl, 1 mM TCEP, 0.05% Tween-20; Kd of individual titrations (in S0002 mean and sd, n = 2). This is another data set of the same source.
Assay [9] addresses B1. In words: MST; apparent; THD1 titrated to 488–β1-CT or THD2 to 488–β3-CT in the presence of 30 µM KIND2; MST buffer.
In assay [10] the target is T3, kindlin-2 (KIND2) (UniProt Q8CIB5 1-680).
T3 construct: kindlin-2 (KIND2), recombinant; with the F1 loop and the PH domain (unlike ΔKIND2); source: E. coli Rosetta, purified (IMAC, SEC); not shown: His10-SUMO, N-terminal, cleaved
T3 sequence (looked up): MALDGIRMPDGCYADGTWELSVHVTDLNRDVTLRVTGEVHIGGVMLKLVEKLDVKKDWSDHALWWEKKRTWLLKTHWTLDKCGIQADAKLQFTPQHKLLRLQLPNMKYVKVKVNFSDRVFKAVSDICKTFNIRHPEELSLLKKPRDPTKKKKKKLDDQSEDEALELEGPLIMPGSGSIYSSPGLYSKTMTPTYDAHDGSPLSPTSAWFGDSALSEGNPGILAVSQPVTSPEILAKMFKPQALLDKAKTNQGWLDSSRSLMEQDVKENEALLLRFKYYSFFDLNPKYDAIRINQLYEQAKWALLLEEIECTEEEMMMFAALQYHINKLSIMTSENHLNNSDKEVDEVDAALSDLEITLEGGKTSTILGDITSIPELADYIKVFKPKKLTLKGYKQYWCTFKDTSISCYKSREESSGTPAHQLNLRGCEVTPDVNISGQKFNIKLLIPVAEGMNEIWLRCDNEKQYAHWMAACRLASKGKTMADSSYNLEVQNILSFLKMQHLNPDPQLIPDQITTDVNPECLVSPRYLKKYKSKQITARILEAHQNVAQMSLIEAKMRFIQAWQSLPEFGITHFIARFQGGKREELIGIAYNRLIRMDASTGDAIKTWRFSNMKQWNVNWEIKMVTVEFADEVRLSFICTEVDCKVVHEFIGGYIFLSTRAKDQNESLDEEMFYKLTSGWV
The assay is described as follows: MST; unlabelled protein titrated to 50-200 nM ATTO 488-labelled β-CT peptide, no third protein; 20 mM Tris pH 7.5, 200 mM NaCl, 1 mM TCEP, 0.05% Tween-20; Kd of individual titrations (in S0002 mean and sd, n = 2).

Assay [11] concerns the target T3, kindlin-2 (KIND2). In words: MST; apparent; KIND2 titrated to 488–β3-CT Y772A in the presence of 500 µM THD1; MST buffer.

Where “and” joins values, the source holds several entries; their conditions need not be identical. Identical values can stand only once. No end group written: not given here.

What is called IC50 is the concentration that gives 50% inhibition. A low value points to inhibition by little substance. In the case of B1, the 50% inhibitory concentration (IC50) was 0.249 µM and 0.192 µM and 0.087 µM in assay [1]; 0.049 µM and 0.091 µM and 0.089 µM and 0.062 µM in assay [2]; 0.321 µM and 0.39 µM and 0.506 µM and 0.206 µM in assay [3]; 0.053 µM and 0.07 µM and 0.127 µM in assay [4].

B2: ATTO 488-labeled integrin β1 cytoplasmic tail (488–β1-CT) (peptide, UniProt P09055-1 758-798, looked up)
peptide: {ATTO 488}-HDRREFAKFEKEKMNAKWDTGENPIYKSAVTTVVNPKYEGK
notes: integrin β1A cytoplasmic tail (β1-CT), residues 758-798; the limits 758-798 are stated for the recombinant β1-CT; also called β1A-CT; source: synthetic peptide (MPIB Core Facility)
As to B2, the Kd in assay [5] was 152 µM; in assay [6], 173 µM and 137 µM and 177 µM; in [7], 148 µM and 212 µM and 195 µM; in assay [8], 128 µM and 152 µM and 141 µM; in [9], 159 µM and 173 µM and 127 µM.

B3: ATTO 488-labeled talin-binding-impaired β3-CT Y772A (peptide, UniProt O54890 741-787, looked up)
peptide: {ATTO 488}-KLLITIHDRKEFAKFEEERARAKWDTANNPLAKEATSTFTNITYRGT
notes: integrin β3 cytoplasmic tail (β3-CT), Y772A; source: synthetic peptide (MPIB Core Facility)
As for B3, the Kd with kindlin-2 (KIND2) [10] was 20.3 µM and 13.8 µM and 12.5 µM; in the assay with kindlin-2 (KIND2) [11] it was 17.9 µM and 15.3 µM and 23.3 µM and 13.4 µM.
